Experimental data taken from paper PMC2175144 (The Journal of Cell Biology, 2000).
Each block holds one molecule with its values, some of them ahead of it.

Key:
[1] = target: L1 FN3 putative C-C′ loop peptide …^852, wild type (human); assay: SDS-PAGE of peptides
SEC = target: the molecule itself; assay: SEC
[2] = target: the molecule itself; assay: SDS-PAGE without boiling, immunoblot

stoichiometry N [1]: 3
Molecule: L1 FN3 putative C-C′ loop peptide …^852, wild type

B1: L1 third FN-like repeat (FN3), GST fusion protein, wild type (domain or fragment, human, UniProt P32004 814-916, looked up)
chain: AIPELEGIEILNSSAVLVKWRPVDLAQVKGHLRGYNVTYWREGSQRKHSKRHIHKDHVVVPANTTSVILSGLRPYSSYHLEVQAFNGRGSGPASEFTFSTPEG
stoichiometry N (SEC): ≥ 3

B2: L1 FN-like repeats 1-3 (FN1-3) fusion protein, as run on SDS-PAGE (domain or fragment, human, UniProt P32004 615-916, looked up)
chain: VPRLVLSDLHLLTQSQVRVSWSPAEDHNAPIEKYDIEFEDKEMAPEKWYSLGKVPGNQTSTTLKLSPYVHYTFRVTAINKYGPGEPSPVSETVVTPEAAPEKNPVDVKGEGNETTNMVITWKPLRWMDWNAPQVQYRVQWRPQGTRGPWQEQIVSDPFLVVSNTSTFVPYEIKVQAVNSQGKGPEPQVTIGYSGEDYPQAIPELEGIEILNSSAVLVKWRPVDLAQVKGHLRGYNVTYWREGSQRKHSKRHIHKDHVVVPANTTSVILSGLRPYSSYHLEVQAFNGRGSGPASEFTFSTPEG
stoichiometry N [2]: 3
